Test results: EP4611795A1

Key:
[1] = target: human IgG (purified human IgG; IgG in human sera) (human); test: cell-based or functional assay
[2] = target: human IgM (purified human IgM, MilliporeSigma; IgM in human sera) (human); test: cell-based or functional assay
human IgM (purified human IgM, MilliporeSigma; IgM in human sera) (human), sequence (heavy, as listed by the source): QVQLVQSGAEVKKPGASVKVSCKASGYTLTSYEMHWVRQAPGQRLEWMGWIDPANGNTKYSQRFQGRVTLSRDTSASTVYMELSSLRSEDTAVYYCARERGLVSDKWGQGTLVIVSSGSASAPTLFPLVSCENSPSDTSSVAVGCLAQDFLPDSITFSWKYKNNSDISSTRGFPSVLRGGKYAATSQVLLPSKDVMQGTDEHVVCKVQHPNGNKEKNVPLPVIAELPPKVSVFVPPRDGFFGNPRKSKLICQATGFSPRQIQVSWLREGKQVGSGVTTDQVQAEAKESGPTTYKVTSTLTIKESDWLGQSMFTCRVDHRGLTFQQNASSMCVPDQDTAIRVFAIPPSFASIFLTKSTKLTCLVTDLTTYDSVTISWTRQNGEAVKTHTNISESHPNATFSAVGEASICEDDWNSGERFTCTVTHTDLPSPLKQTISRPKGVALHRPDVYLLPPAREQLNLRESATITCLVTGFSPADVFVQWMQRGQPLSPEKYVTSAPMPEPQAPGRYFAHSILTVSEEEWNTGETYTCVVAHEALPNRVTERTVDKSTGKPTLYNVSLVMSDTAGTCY

IceMG (recombinant His-tagged fusion protein of IceM and IdeZ proteolytic domains with the rigid linker) (enzyme)
EC50 of IceMG enzymatic activity on IgG in human sera [1]: 4.7 nM
EC50 of IceMG enzymatic activity on IgM in human sera [2]: 0.07 nM
